The data set deals with the molecule itself. The experiment in a line: gel filtration chromatography (self-association, homodimer). On the technique in general: In gel filtration, larger molecules generally elute earlier.

Numbering of substitutions follows the chain as printed.

B1: vSET triple mutant KR(M)R-to-AA(M)A (aa 85-88) (enzyme)
chain: MFNDRVIVKKSPLGGYGVFARKSFEKGELVEECLCIVRHNDDWGTALEDYLFSRKNMSAMALGFGAIFNHSKDPNARHELTAGLAAMAIFTIKPIAIGEEITISYGDDYWLSRPRLTQN
notes: elutes as a dimer like the wild type; also called KR(M)R/AA(M)A
In the case of B1, the binding result is reported as “binds”.

B2: recombinant wild-type vSET expressed in E. coli BL21 (enzyme)
chain: B1 chain with A85K, A86R, A88R
notes: also called hexa-histidine tagged vSET; not shown: tag in the
For B2, the binding result is listed as “binds”.

The values are drawn from patent publication US20110123511A1 (ICAHN SCHOOL OF MEDICINE AT MOUNT SINAI, published 2011).
